Reference: PMC12095048

Target: USP7 (UniProt Q93009)
Assay: co-IP of Flag-HIF-1α, USP7 blot
Conditions: reference: wild type Flag-HIF-1α; sites T645

Substance: HIF-1α (from UniProt Q16665) Flag-HIF-1α T645A
- binding against the reference: weaker
